The values below come from patent US7871610B2, “Antibodies to Tie1 ectodomain” (Dyax Corp., priority 2003, dated 2011).

What all share (type): binding
The target of assay [1] is Tie1 (Homo sapiens, UniProt P35590). Description: Immunofluorescence staining of Tie1-transfected COS1 cells. To be noted: COS1 cells transfected with pcDNA3-Tie1-V5; antibodies 5 μg/ml. The protocol:
COS1 cells on the glass coverslips were transiently transfected with pcDNA3-Tie1-V5 (the V5-epitope was added to the 3′ terminus of pcDNA3-Tie1) (1 μg DNA per 10 cm cell culture plate) using FUGENE™ 6 (Roche) according to manufacturer's instruction and incubated for 48 h before staining. Cells were fixed in 4% paraformaldehyde for 10 min at 4° C. If required, the cells were permeabilized with 0.2% Triton X-100 in PBS for 5 min. Unspecific binding sites were blocked by incubation with 1% BSA in PBS for 30 min. The cells were then stained with anti-Tie1 antibodies (5 μg/ml) and anti-V5 antibodies for 1 h at room temperature, followed by incubation with FITC— conjugated anti-human antibodies (DAKO, 40 μg/ml) and TRITC-conjugated anti-mouse antibodies (DAKO, 15 μg/ml) for 30 min. Hoechst 33258 fluorochrome (Sigma, 0.5 μg/ml) was used for the staining of the nuclei.

Assay [2] concerns the target T1, Mouse Tie 1-Fc (Mus musculus, UniProt Q06806).
T1 sequence (Q06806 23-755 limits assumed): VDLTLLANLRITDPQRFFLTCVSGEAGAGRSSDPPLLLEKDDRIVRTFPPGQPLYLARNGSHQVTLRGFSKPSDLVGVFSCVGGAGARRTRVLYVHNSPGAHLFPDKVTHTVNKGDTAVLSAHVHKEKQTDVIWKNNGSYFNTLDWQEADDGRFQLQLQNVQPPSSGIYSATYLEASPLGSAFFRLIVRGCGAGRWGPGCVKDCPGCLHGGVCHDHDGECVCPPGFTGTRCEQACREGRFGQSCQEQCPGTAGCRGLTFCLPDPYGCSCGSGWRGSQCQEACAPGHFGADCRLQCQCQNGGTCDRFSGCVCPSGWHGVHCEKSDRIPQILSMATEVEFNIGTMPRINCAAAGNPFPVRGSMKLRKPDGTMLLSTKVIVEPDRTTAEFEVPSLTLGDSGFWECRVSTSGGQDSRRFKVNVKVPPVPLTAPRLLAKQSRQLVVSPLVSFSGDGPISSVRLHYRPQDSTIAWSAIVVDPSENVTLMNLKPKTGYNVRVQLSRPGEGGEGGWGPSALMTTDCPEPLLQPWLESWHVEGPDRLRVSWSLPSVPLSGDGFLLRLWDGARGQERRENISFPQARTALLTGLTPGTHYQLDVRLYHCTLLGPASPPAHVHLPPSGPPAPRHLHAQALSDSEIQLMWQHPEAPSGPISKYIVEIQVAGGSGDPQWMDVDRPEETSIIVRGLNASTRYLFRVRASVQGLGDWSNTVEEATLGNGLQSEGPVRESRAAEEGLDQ
Description: BIAcore, E3 Fabs on mouse Tie1-Fc. The note with it: E3 Fab over biotinylated mouse Tie-1 Fc on streptavidin chip; 1:1 model. On the procedure:
Mouse Tie 1-Fc antigen (0.5 mg/ml stock) was biotinylated using established procedures and after dilution 1/100 fold in HBS this was then used for capturing to a streptavidin chip. This was coated to a resonance value of 740RU. All analysis was performed in HBS buffer. The parental Fab E3 0.587 mg/ml (11740 nM) was diluted 1/587 in HBS+BSA to obtain a stock of 20 nM and the germlined Fab E3 0.025 mg/ml (500 nM) was diluted 1/25 in HBS+BSA to obtain a stock of 20 nM. Serial dilutions were made of each Fab preparation to obtain 10 nM, 5 nM, 2.5 nM, and 1.25 nM. For the association phase samples were injected at 30 μl/min for 4 minutes using kinject program. This was followed by a 10 minutes dissociation phase, any remaining sample was stripped from the Tie-1 Fc surface at a flow of 50 μl/min with a single injection of 50 mM NaOH+1 M NaCl for 18 seconds. All samples were run and analyzed in duplicate.
Sensorgrams were analyzed using the simultaneous ka/kd fitting program with 1:1 model in the BIAEVALUATION™ software 3.1.

For assay [3], the target named is T2, recombinant human Tie1-Fc (Homo sapiens, UniProt P35590).
T2 construct: selected against the Tie1 extracellular domain fused to human Fc or to a histidine purification tag
T2 sequence (P35590 22-759 limits assumed): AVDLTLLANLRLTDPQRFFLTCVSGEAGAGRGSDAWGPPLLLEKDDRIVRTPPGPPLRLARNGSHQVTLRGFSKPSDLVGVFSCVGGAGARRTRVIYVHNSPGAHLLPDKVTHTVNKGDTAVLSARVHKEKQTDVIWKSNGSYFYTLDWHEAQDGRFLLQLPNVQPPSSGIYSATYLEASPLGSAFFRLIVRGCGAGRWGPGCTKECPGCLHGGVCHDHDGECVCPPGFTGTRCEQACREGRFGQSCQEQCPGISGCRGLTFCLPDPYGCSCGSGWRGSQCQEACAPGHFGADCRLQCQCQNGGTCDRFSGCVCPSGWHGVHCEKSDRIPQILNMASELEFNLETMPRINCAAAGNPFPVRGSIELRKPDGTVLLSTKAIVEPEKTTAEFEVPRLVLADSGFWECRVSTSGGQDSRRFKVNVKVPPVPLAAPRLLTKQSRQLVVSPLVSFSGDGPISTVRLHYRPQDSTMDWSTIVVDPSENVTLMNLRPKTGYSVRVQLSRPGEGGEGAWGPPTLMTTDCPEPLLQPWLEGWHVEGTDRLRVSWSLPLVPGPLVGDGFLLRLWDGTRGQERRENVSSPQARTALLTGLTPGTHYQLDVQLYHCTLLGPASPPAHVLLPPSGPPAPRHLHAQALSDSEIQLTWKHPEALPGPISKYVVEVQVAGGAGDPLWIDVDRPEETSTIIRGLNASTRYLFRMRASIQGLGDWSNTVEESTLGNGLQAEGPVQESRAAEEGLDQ
Description: BIAcore, parental and germlined E3b Fabs on human Tie-1/Fc. The note with it: E3 Fab over human Tie-1/Fc coated on CM5 chip; 1:1 model. On the procedure: Recombinant human Tie-1/Fc was coated on a CM5 chip. The surface of the chip was first activated with a 7-minute pulse of 0.05 M NHS/0.2 M EDC, then Tie-1/Fc (2 μg/ml in 10 mM sodium acetate, pH 4.0) was run over the chip surface until 750 RUs were coated on the surface. All flow cells were subsequently deactivated with a 7-minute pulse of 1 M ethanolamine hydrochloride, pH 8.5. All further experiments were performed in HBS buffer.
The parental and the germlined E3b Fabs were prepared. A series of dilution (50, 25, 12.5, 6.25 and 3.125 nM) was prepared in HBS buffer. Samples were injected at 30 μl/min for 5.3 minutes using the KINJECT™ program. This was followed by a 10-minute dissociation phase, and the remaining Fab was stripped from the surface with a single 18-sec injection of 50 mM NaOH/1 M NaCl.
Sensorgrams were analyzed using the simultaneous ka/kd fitting program from the BIAEVALUATION™ software 3.1 assuming a 1:1 model.

Sequence of Tie1 (P35590 22-1138): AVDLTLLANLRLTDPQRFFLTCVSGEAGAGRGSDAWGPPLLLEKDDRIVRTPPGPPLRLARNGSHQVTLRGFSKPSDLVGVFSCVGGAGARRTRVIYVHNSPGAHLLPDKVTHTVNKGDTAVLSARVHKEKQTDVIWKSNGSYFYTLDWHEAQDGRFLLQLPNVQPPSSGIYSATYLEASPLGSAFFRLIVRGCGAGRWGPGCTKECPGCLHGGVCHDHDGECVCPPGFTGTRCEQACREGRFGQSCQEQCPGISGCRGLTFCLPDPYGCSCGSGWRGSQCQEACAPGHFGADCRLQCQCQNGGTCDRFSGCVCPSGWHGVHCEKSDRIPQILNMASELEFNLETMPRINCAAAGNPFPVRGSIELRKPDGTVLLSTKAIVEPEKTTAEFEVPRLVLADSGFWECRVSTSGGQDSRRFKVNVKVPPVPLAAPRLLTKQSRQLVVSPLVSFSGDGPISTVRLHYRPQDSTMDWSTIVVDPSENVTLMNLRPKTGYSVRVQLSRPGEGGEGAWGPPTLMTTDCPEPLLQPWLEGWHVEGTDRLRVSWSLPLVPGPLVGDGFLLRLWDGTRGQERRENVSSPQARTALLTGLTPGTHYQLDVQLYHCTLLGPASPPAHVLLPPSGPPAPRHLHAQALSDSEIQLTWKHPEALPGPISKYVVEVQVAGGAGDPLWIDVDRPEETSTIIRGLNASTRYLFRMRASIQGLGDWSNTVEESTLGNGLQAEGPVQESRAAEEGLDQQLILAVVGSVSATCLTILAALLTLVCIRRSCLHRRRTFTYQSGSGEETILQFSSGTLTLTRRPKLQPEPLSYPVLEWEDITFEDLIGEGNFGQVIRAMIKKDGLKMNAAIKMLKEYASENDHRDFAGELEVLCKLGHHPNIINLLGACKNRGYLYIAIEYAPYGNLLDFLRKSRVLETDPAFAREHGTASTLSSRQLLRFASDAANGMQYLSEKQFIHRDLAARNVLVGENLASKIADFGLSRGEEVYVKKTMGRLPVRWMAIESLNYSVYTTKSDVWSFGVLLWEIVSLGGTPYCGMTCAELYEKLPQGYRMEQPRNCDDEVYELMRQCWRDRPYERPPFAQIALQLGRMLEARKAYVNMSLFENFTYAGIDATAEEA

B1: P-F4: anti-Tie1 antibody; VH SEQ ID NO:48, VL SEQ ID NO:50 (antibody, V domains shown)
VH: EVQLLESGGGLVQPGGSLRLSCAASGFTFSAYMMSWVRQAPGKGLEWVSSIYPSGGYTYYADSVKGRFTISRDNSKNTLYLQMNSLRAEDTAVYYCARGLRGGPDYWGQGTLVTVSSASTKGPSVFPLAPSSKSTSGGTAALG
VL: QDIQMTQSPSTLSAYVGDSVTITCRASQSVRRSLAWYQQRPGKAPKSLIYKASTLETGVPPRFSGSGSGTEFTLTISSLQPEDSAIYYCQQYGSFPLTFGGG
modifications: Synthetically generated peptide
For the molecule B1, the “IF: Tie1-transfected” value in assay [1] is “cross”.

B2: E3 Fab parental (antibody, V domains shown)
VH: EVQLLESGGGLVQPGGSLRLSCAASGFTFSMYGMVWVRQAPGKGLEWVSVISPSGGNTGYADSVKGRFTISRDNSKNTLYLQVNSLRAEDTAVYYCARAPRGYSYGYYYWGQGTLVTVSSASTKGPSVFPLAPSSKSTSGG
VL: DIQMTQSPLSLSASVGDRVTITCRASQGIGHYLAWYQQKPGKVPKLLIYTASTLQSGVPSRFSGSGSGTDFTLTINSLQPEDVATYYCQQFNSYPHTFGQGTRLDIK
In assay [2], B2 registered a ka of 246000 M⁻¹ s⁻¹ and a kd of 0.00095 s⁻¹.

B3: E3 Fab Parental (antibody, V domains shown)
VH: EVQLLESGGGLVQPGGSLRLSCAASGFTFSMYGMVWVRQAPGKGLEWVSVISPSGGNTGYADSVKGRFTISRDNSKNTLYLQVNSLRAEDTAVYYCARAPRGYSYGYYYWGQGTLVTVSSASTKGPSVFPLAPSSKSTSGG
VL: DIQMTQSPLSLSASVGDRVTITCRASQGIGHYLAWYQQKPGKVPKLLIYTASTLQSGVPSRFSGSGSGTDFTLTINSLQPEDVATYYCQQFNSYPHTFGQGTRLDIK
For B3, in assay [3], the ka was found to be 88100 M⁻¹ s⁻¹ and the kd is 0.00105 s⁻¹.
